# B1: VH:VL chains; a variant is named by its letters at X, in order (parent)
# chain 1: QVQLVQSGAEVKKPGASVKVSCKASGYTFTDYXMHWVRQAPGQGLEWMGXVNPNXXXTTYNQKFEGRVTMTTDTSTSTAYMELRSLRSDDTAVYYCARXNXLDXWGQGTTVTVSS
# chain 2: DIQMTQSPSSLSASVGDRVTITCSVSSSVSSIYLHWYQQKPGKAPKLLIYSTSNLASGVPSRFSGSGSGTDFTLTISSLQPEDFATYYCQVYSGYPLTFGGGTKVEIK
# Variants of: B1
# Assay: yeast display scFab, FACS + sequencing
# How it was run: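 Heavy-chain CDR mutant scFab yeast surface library, FACS-sorted after labelling with biotinylated ovalbumin (260 μg/mL in PBSB, 3 h, room temperature) or soluble membrane proteins (130 μg/mL, 20 min on ice), plus anti-Myc. Gates collected the top 25% and bottom 10% of binders, and samples from two replicates were deep sequenced. Non-specific binding call: a sequence was positive if found in ≥3 of 4 positive samples (membrane protein and ovalbumin pooled) and no negatives, and negative by the converse rule.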
row,Variant,non-specific binding call
1,DRAGDYLY,no binding
2,DRAGDYLV,no binding
3,SRARDFGY,no binding
4,YRAGGYVD,binds
5,YRAGGYVA,binds
6,YRAGGYVF,binds
7,VRARGDGY,no binding
8,FRAGGSGA,binds
9,FRAGGSGD,binds
10,FRARGSGA,binds
11,YRAGDALD,no binding
12,ARARGSGA,binds
13,YRAKGAVV,binds
14,SRARGAGA,binds
15,YRAKGVGA,binds
16,DRAGDDVF,no binding
17,DRAGDDVY,no binding
18,DRAGDDVV,no binding
19,YRAGSAAD,binds
20,YRAGSAAA,binds
21,YRAKDALA,no binding
22,DRAGDALD,no binding
23,YRARGAAY,binds
24,YRARGAAS,binds
25,YRAKGSWD,binds

row,Variant,non-specific binding call
1,FRAGGAVD,binds
2,FRAGGAVY,binds
3,YRAKGAAV,binds
4,YRAKGAAD,binds
5,YRAKGAAA,binds
6,YRAKGYGA,binds
7,VRAGDDVA,no binding
8,VRAGDDVD,no binding
9,VRAGDDVF,no binding
10,YRARGSLA,binds
11,DRAGDSGF,no binding
12,DRAGDSGA,no binding
13,YRAGGDSA,no binding
14,VRAGDSLD,no binding
15,VRAGDSLS,no binding
16,YRAKGSSS,binds
17,FRAGGSVD,binds
18,YRAGDSWD,no binding
19,DRAGDDAV,no binding
20,YRAGGSSY,binds
21,VRAGGSVA,binds
22,YRAGGAGY,binds
23,YRAGASLA,binds
24,VRAGDALV,no binding
25,YRARGSGY,binds

row,Variant,non-specific binding call
1,YRARGSGV,binds
2,YRAKGSGD,binds
3,YRAKGSGV,binds
4,VRAKGSAD,binds
5,VRAGGDLA,no binding
6,YRAKGSLD,binds
7,YRAKGSLA,binds
8,YRAGTAVS,binds
9,YRAGTAVD,binds
10,YRARGSAD,binds
11,YRARGSAV,binds
12,YRARGSAA,binds
13,YRAGASGA,binds
14,YRAGASGD,binds
15,YRAGSASD,binds
16,VRAGGSGD,binds
17,DRAGDSLV,no binding
18,DRAGDSLD,no binding
19,FRARGAGA,binds
20,FRARGAGS,binds
21,FRARGAGV,binds
22,DRAGDDSA,no binding
23,FRARGAAV,binds
24,FRARGAAY,binds
25,YRARGDLD,binds

row,Variant,non-specific binding call
1,VRAGAFSV,no binding
2,DRAGDSVD,no binding
3,VRARGAGF,binds
4,YRAGSSAD,binds
5,YRAKGSVD,binds
6,VRARGFVV,binds
7,YRAGGVAV,binds
8,FRAGGSAA,binds
9,YRAKGSAV,binds
10,YRAKGSAA,binds
11,YRAKGSAD,binds
12,FRAGSAVV,binds
13,VRAGGDSF,no binding
14,SRARGAAA,binds
15,VRARGAWF,binds
16,DRAGDDWV,no binding
17,DRAGDDWY,no binding
18,DRAGDDWA,no binding
19,VRAGDSGY,no binding
20,YRAGGYGD,binds
21,YRAGGYGY,binds
22,YRAGGYGF,binds
23,YRAKSAVF,binds
24,VRAGDSSA,no binding
25,VRAGDSSV,no binding

row,Variant,non-specific binding call
1,ARAGDDAV,no binding
2,ARAGSFWA,binds
3,YRAKSSSS,binds
4,YRAKGAGD,binds
5,YRAKGAGV,binds
6,YRAKGAGA,binds
7,YRAKGAGS,binds
8,YRAGDDVY,no binding
9,YRAGDDVA,no binding
10,YRARGDGV,no binding
11,VRAGGDWV,no binding
12,FRAGSSWD,binds
13,YRAGTSGD,binds
14,YRARGASA,binds
15,YRAGTAAA,binds
16,YRAGGYWY,binds
17,VRAGGDAV,no binding
18,VRAGGDAA,no binding
19,YRARGAVA,binds
20,YRARGAVS,binds
21,YRARGFGV,binds
22,YRARGFGA,binds
23,FRAGSSGV,binds
24,FRAGGVGV,binds
25,YRAGGDWY,binds

row,Variant,non-specific binding call
1,VRAGDDAV,no binding
2,DRAGDAGV,no binding
3,DRAGDAGA,no binding
4,DRAGDAGY,no binding
5,DRAGDAGS,no binding
6,FRAGGSSV,binds
7,DRAGDAAA,no binding
8,DRAGDAAV,no binding
9,DRAGDDLY,no binding
10,DRAGDDLA,no binding
11,VRAGGDVF,no binding
12,VRAGGFGA,binds
13,VRARGALV,binds
14,DRAGDASD,no binding
15,DRAGDSSA,no binding
16,YRAGGAWY,binds
17,YRARDDVF,no binding
18,YRAGGDAD,binds
19,YRAGDAVV,no binding
20,YRAGGSVA,binds
21,FRAGGAGV,binds
22,FRAGGAGA,binds
23,ARAGGSVV,no binding
24,YRAGGALS,binds
25,YRAGDSVD,no binding

row,Variant,non-specific binding call
1,ARAGSAWA,binds
2,VRAGDSVA,no binding
3,YRAGGFVV,binds
4,YRAGGFVA,binds
5,VRAGADVA,no binding
6,VRAGADVD,no binding
7,VRAGADVV,no binding
8,VRAGADVY,no binding
9,VRAGDDGA,no binding
10,VRAGDDGV,no binding
11,VRAGDDGS,no binding
12,YRAGGASA,binds
13,YRAKSALV,binds
14,YRAGDSGY,no binding
15,YRAGGVGD,binds
16,YRAGGVGF,binds
17,YRAGGVGS,binds
18,FRAGGAWY,binds
19,FRAGGAWS,binds
20,FRAGGAWV,binds
21,YRAKGAWY,binds
22,YRAGGAAF,binds
23,YRAGGVVA,binds
24,FRAGGSLF,binds
25,FRAGGSLY,binds

row,Variant,non-specific binding call
1,YRAKSSGV,binds
2,YRARGAGV,binds
3,YRARGAGS,binds
4,YRARGAGY,binds
5,YRARGAGA,binds
6,YRARGAGF,binds
7,YRAGDAAD,no binding
8,YRARGAWF,binds
9,YRARGAWV,binds
10,YRARGAWY,binds
11,YRARGAWD,binds
12,YRARGAWS,binds
13,ARAGGAAA,binds
14,YRAGSSGD,binds
15,YRAGSSGV,binds
16,YRAGSSGA,binds
17,FRAGDYLV,no binding
18,FRAGGAAV,binds
19,FRAGGAAA,binds
20,ARAGDYLV,no binding
21,YRAKGALF,binds
22,YRAKGALS,binds
23,YRAKGALA,binds
24,VRAGADWY,no binding
25,DRAGDSWD,no binding

row,Variant,non-specific binding call
1,DRAGDSWA,no binding
2,VRAGDDSD,no binding
3,YRAGDSSS,no binding
4,YRAGDSSA,no binding
5,VRAGGSAD,binds
6,YRAGGFGY,binds
7,YRAGGFGS,binds
8,YRAGGYAA,binds
9,VRAGDYLV,no binding
10,ARAKTSWV,binds
11,YRAGDFGV,no binding
12,VRAGSSWD,binds
13,DRAGDDGY,no binding
14,DRAGDDGS,no binding
15,DRAGDDGD,no binding
16,DRAGDDGA,no binding
17,FRAGDAGV,binds
18,FRAGSAWS,binds
19,SRAGGSLY,binds
20,FRAGGALS,binds
21,VRAGSSLD,no binding
22,FRAKGSAD,binds
23,DRAGGAGD,no binding
24,YRARGALV,binds
25,YRARGALS,binds

row,Variant,non-specific binding call
1,DRAGDAVD,no binding
2,DRAGDAVS,no binding
3,VRAGDAGV,no binding
4,VRAGDAGA,no binding
5,YRAGSSWD,binds
6,VRAGGAWV,binds
7,SRAGDYLV,no binding
8,VRARGAAY,binds
9,VRARGAAD,no binding
10,YRAGASAD,binds
11,YRAGASAV,binds
12,VRARGDVS,no binding
13,YRAGGSWF,binds
14,ARAGDAVV,no binding
15,ARAGDAVA,no binding
16,VRAKGAGY,binds

# From the emibetuzumab library of Makowski et al. (2022)
